The values below come from patent US20130174289A1, “Na+/Mg2+ Exchanger” (FBN - Leibnitz-Institut fur Nutztierbiologie, published 2013).

The experiment deals with SLC41A1 (human). Put plainly: split-ubiquitin method screen (DUALmembrane SU-YTH) for SLC41A1 complex-forming partners.
SLC41A1 (human), sequence (chain, as listed by the source limits assumed): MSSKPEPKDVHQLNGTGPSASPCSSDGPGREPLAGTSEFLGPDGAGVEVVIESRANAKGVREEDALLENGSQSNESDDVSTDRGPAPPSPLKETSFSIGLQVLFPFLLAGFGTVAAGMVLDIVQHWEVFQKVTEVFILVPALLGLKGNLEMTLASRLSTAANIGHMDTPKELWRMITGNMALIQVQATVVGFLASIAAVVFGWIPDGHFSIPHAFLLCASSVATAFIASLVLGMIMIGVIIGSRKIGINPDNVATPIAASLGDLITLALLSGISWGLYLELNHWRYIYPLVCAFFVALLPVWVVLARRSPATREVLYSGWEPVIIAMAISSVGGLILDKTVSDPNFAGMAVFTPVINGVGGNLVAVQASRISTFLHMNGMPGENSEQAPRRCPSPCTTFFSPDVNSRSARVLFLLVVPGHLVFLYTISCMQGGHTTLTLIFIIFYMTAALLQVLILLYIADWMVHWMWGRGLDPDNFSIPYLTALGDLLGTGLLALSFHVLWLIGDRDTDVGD

B1: Kunitz-type protease inhibitor 2 (other)
chain: ADRERSIHDFCLVSKVVGRCRASMPRWWYNVTDGSCQLFVYGGCDGNSNNYLTKEECLKKCATVTENATGDLATSRNAADSSVPSAPRRQDSEDHSSDMFNYEEYCTANAVTGPCRASFPRWYFDVERNSCNNFIYGGCRGNKNSYRSEEACMLRCFRQQENPPLPLGSKVVVLAGLFVMVLILFLGASMVYLIRVARRNQERALRTVWSSGDDKEQLVKNTYVL
On to B1, for which the occurrence was 2 clones.

B2: Protein disulfide-isomerase A6 (enzyme)
chain: LYSSSDDVIELTPSNFNREVIQSDSLWLVEFYAPWCGHCQRLTPEWKKAATALKDVVKVGAVDADKHHSLGGQYGVQGFPTIKIFGSNKNRPEDYQGGRTGEAIVDAALSALRQLVKDRLGGRSGGYSSGKQGRSDSSSKKDVIELTDDSFDKNVLDSEDVWMVEFYAPWCGHCKNLEPEWAAAASEVKEQTKGKVKLAAVDATVNQVLASRYGIRGFPTIKIFQKGESPVDYDGGRTRSDIVSRALDLFSDNAPPPELLEIINEDIAKRTCEEHQLCVVAVLPHILDTGAAGRNSYLEVLLKLADKYKKKMWGWLWTEAGAQSELETALGIGGFGYPAMAAINARKMKFALLKGSFSEQGINEFLRELSFGRGSTAPVGGGAFPTIVEREPWDGRDGELPVEDDIDLSDVELDDLGKDEL
As for B2, the occurrence worked out at 11 clones.

B3: Uncharacterized protein C4orf3 (other)
chain: MEVDAPGVDGRDGLRERRGFSEGGRQNFDVRPQSGANGLPKHSYWLDLWLFILFDVVVFLFVYFLP
For the molecule B3, the occurrence was found to be 2 clones.

B4: ATP synthase subunit a (Homo sapiens) (other)
chain: MNENLFASFIAPTILGLPAAVLIILFPPLLIPTSKYLINNRLITTQQWLIKLTSKQMMTMHNTKGRTWSLMLVSLIIFIATTNLLGLLPHSFTPTTQLSMNLAMAIPLWAGTVIMGFRSKIKNALAHFLPQGTPTPLIPMLVIIETISLLIQPMALAVRLTANITAGHLLMHLIGSATLAMSTINLPSTLIIFTILILLTILEIAVALIQAYVFTLLVSLYLHDNT
Regarding B4, the occurrence is 1 clones.

B5: 3-beta-hydroxysteroid-Delta(8), Delta(7)-isomerase (Rattus norvegicus) (enzyme)
chain: MTTNMLPLHPYWPRHLRLDNFVPNDLPTWHILVGLFSFSGVLIVITWLLSSRVSVVPLGTGRRLALCWFAVCTFIHLVIEGWFSFYHEILLEDQAFLSQLWKEYSKGDSRYILSDGFIVCMESVTACLWGPLSLWVVIAFLRHQPFRFVLQLVVSVGQIYGDVLYFLTELRDGFQHGELGHPLYFWFYFVIMNAIWLVIPGILVFDAIKHLTNAQSMLDNKVMKIKSKHN
As to B5, the occurrence was 1 clones.

B6: Translocon-associated protein subunit gamma (other)
chain: MAPKGSSKQQSEEDLLLQDFSRNLSAKSSALFFGNAFIVSAIPIWLYWRIWHMDLIQSAVLYSVMTLVSTYLVAFAYKNVKFVLKHKVAQKREDAVSKEVTRKLSEADNRKMSRKEKDERILWKKNEVADYEATTFSIFYNNTLFLVVVIVASFFILKNFNPTVNYILSISASSGLIALLSTGSK
In turn, B6 registered an occurrence of 4 clones.

B7: Probable ergosterol biosynthetic protein 28 (other)
chain: MSRFLNVLRSWLVMVSIIAMGNTLQSFRDHTFLYEKLYTGKPNLVNGLQARTFGIWTLLSSVIRCLCAIDIHNKTLYHITLWTFLLALGHFLSELFVYGTAAPTIGVLAPLMVASFSILGMLVGLRYLEVEPVSRQKKRN
The molecule B7 came in with an occurrence of 2 clones.

B8: UPF0480 protein C15orf24 homolog (other)
chain: SEVPGAAAEGSGGSGVGIGDRFKIEGRAVVPGVKPQDWISAARVLVDGEEHVGFLKTDGSFVVHDIPSGSYVVEVVSPAYRFDPVRVDITSKGKMRARYVNHIKTSEVVRLPYPLQMKSSGPPSYFIKRESWGWTDFLMNPMVMMMVLPLLIFVLLPKVVNTSDPDMRREMEQSMNMLNSNHELPDVSEFMTRLFSSKSSGKSSSGSSKTGKSGAGKRR
For B8, the occurrence worked out at 1 clones.

B9: UPF0480 protein C15orf24 (other)
chain: SEVPGAAAEGSGGSGVGIGDRFKIEGRAVVPGVKPQDWISAARVLVDGEEHVGFLKTDGSFVVHDIPSGSYVVEVVSPAYRFDPVRVDITSKGKMRARYVNYIKTSEVVRLPYPLQMKSSGPPSYFIKRESWGWTDFLMNPMVMMMVLPLLIFVLLPKVVNTSDPDMRREMEQSMNMLNSNHELPDVSEFMTRLFSSKSSGKSSSGSSKTGKSGAGKRR
B9 had an occurrence of 4 clones.

B10: Uncharacterized protein C10orf35 (other)
chain: MVRILANGEIVQDDDPRVRTTTQPPRGSIPRQSFFNRGHGAPPGGPGPRQQQAGARLGAAQSPFNDLNRQLVNMGFPQWHLGNHAVEPVTSILLLFLLMMLGVRGLLLVGLVYLVSHLSQR
With B10, the occurrence stood at 2 clones.

B11: Protein YIPF6 (other)
chain: MAEAEESPGDPGTASPRPLFAGLSDISISQDIPVEGEITIPMRSRIREFDSSTLNESVRNTIMRDLKAVGKKFMHVLYPRKSNTLLRDWDLWGPLILCVTLALMLQRDSADSEKDGGPQFAEVFVIVWFGAVTITLNSKLLGGNISFFQSLCVLGYCILPLTVAMLICRLVLLADPGPVNFMVRLFVVIVMFAWSIVASTAFLADSQPPNRRALAVYPVFLFYFVISWMILTFTPQ
Regarding B11, the occurrence was 2 clones.

B12: ATP synthase subunit a (Tachyglossus aculeatus aculeatus) (other)
chain: MNENLFASFITPTILGISILPLIMIFPCLLFSAPNRWMPNRLVALQLWLVRMVTKQMMSMHNKQGRMWTLMLITLIMFIASTNLLGLLPYTFTPTTQLSMNMGMAVPLWLGTVLMGFRNKPKSSLAHFLPQGTPTPLIPMLIIIETISLFIQPVALAVRLTANITAGHLLIHLIGSATLALSSISLTVSTITFTILFLLTILEIAVALIQAYVFTLLVSLYLHDNT
Molecule B12 returned an occurrence of 1 clones.

B13: B-cell receptor-associated protein 31 (other)
chain: MSLQWTAVATFLYAEVFVVLLLCIPFISPKRWQKIFKSRLVELLVSYGNTFFVVLIVILVLLVIDAVREIRKYDDVTEKVNLQNNPGAMEHFHMKLFRAQRNLYIAGFSLLLSFLLRRLVTLISQQATLLASNEAFKKQAESASEAAKKYMEENDQLKKGAAVDGGKLDVGNAEVKLEEENRSLKADLQKLKDELASTKQKLEKAENQVLAMRKQSEGLTKEYDRLLEEHAKLQAAVDGPMDKKEE
On to B13, for which the occurrence was 10 clones.

B14: ATP synthase subunit a (Pan troglodytes) (other)
chain: MNENLFASFAAPTILGLPAAVLIILFPPLLVPTSKHLINNRLITTQQWLIQLTSKQMMTMHSTKGRTWSLMLVSLIIFITTTNLLGLLPHSFTPTTQLSMNLAMAIPLWAGAVVMGFRFKTKNALAHFLPQGTPTPLIPMLVIIETISLLIQPMALAVRLTANITAGHLLMHLIGSATLALSTINLPYALIIFTILILLTILEIAVALIQAYVFTLLVSLYLHDNT
As for B14, the occurrence worked out at 1 clones.

B15: Immediate early response 3-interacting protein 1 (other)
chain: MAFTLYSLLQAALLCVNAIAVLHEERFLKNIGWGTDQGIGGFGEEPGIKSQLMNLIRSVRTVMRVPLIIVNSIAIVLLLLFG
With B15, the occurrence worked out at 3 clones.

B16: ATP synthase subunit a (Cricetulus griseus) (other)
chain: MNENLFSSFITPTLMGLPIIILIIMFPPVIMTSSKRLVNNRFHTFQQWLIKLITKQMMAIHSPKGRTWSLMLASLIIFIGSTNLLGLLPHTFTPTTQLSMNLGMAIPPWAGAVILGFRHKMKDSLAHFLPQGTPIPLIPMLVIIETISLFIQPMALAVRLTANITAGHLLMHLIGGATLVLTSISLPTAMITFIILIMLTILEFAVALIQAYVFTLLVSLYLHDNT
Take B16: the occurrence stood at 1 clones.

B17: UPF0414 transmembrane protein C20orf30 (other)
chain: MMPSRTNLATGIPSSKVKYSRLSSTDDGYIDLQFKKTPPKIPYKAIALATVLFLIGAFLIIIGSLLLSGYISKGGADRAVPVLIIGILVFLPGFYHLRIAYYASKGYRGYSYDDIPDFDD
Take B17: the occurrence is 3 clones.

B18: Signal peptidase complex subunit 1 (other)
chain: MARGGDTGCTGPSETSASGAVAIAFPGLEGPPADAQYQTLALTVPKSWSPSPRSLPPALSCPPPQPAMLEHLSSLPTQMDYKGQKLAEQMFQGIILFSAIVGFIYGYVAEQFGWTVYIVMAGFAFSCLLTLPPWPIYRRHPLKWLPVQESSTDDKKPGERKIKRHAKNN
For B18, the occurrence is 2 clones.

B19: Transmembrane protein 14A (other)
chain: MDLIGFGYAALVTFGSIFGYKRRGGVPSLIAGLFVGCLAGYGAYRVSNDKRDVKVSLFTAFFLATIMGVRFKRSKKIMPAGLVAGLSLMMILRLVLLLL
In turn, B19 gave an occurrence of 2 clones.

B20: Peptidyl-prolyl cis-trans isomerase B (enzyme)
chain: not shown
As for B20, the occurrence was found to be 5 clones.

B21: Transmembrane protein 147 (other)
chain: MTLFHFGNCFALAYFPYFITYKCSGLSEYNAFWKCVQAGVTYLFVQLCKMLFLATFFPTWEGGIYDFIGEFMKASVDVADLIGLNLVMSRNAGKGEYKIMVAALGWATAELIMSRCIPLWVGARGIEFDWKYIQMSIDSNISLVHYIVASAQVWMITRYDLYHTFRPAVLLLMFLSVYKAFVMETFVHLCSLGSWAALLARAVVTGLLALSTLALYVAVVNVHS
B21 yielded an occurrence of 2 clones.
